Data on one molecule can be found in PMC10875832 (2024).

One assay deals with soluble CAR D1 domain (chicken). Put plainly: SPR. In general terms: SPR reads the build-up and loss of mass on a sensor chip optically.
Another assay concerns the target soluble CAR D12 (chicken). Briefly: SPR.

B1: CELO fiber1 knob (domain or fragment)
chain: GSSTPEVATYHCGDNLLESYDIFASLPNTNAAKVAAYCRLAAAGGVVSGTIQVTSYAGRWPKVGNSVTDGIKFAIVVSPPMDKDPRSNLSQWLGATVFPAGATTALFSPNPYGSLNTITTLPSIASDWYVPESNLVTYTKIHFKPTGSQQLQLASGELVVAAAKSPVQTTKYELIYLGFTLKQNSSGTNFFDPNASSDLSFLTPPIPFTYLGYYQ
On to B1, for which the Kd – broadly, a measure of binding affinity in units of concentration – in the assay with soluble CAR D1 domain came to 420 nM; in the assay with soluble CAR D12, 115 nM.
